According to patent publication US20110262366A1:
pIC50: −log10 of the molar value. One block for each substance: values may come before it.

What was measured:
[1] = target: endothelial cell receptor on HAEC (human aortic endothelial cells); assay: conjugated fluorescent beads on confluent HAEC, static 30 min, image analysis (Example 2, experiment 1)
[2] = target: endothelial cell receptor on HAEC (human aortic endothelial cells); assay: competition, 100 ng/ml VEGF121 against 2% BRU-114 microbubbles (competitor) on HAEC, static
[3] = target: endothelial cell receptor on HAEC (human aortic endothelial cells); assay: competition, 200 ng/ml VEGF121 against 2% BRU-114 microbubbles (competitor) on HAEC, static
[4] = target: endothelial cell receptor on HAEC (human aortic endothelial cells); assay: competition, 400 ng/ml VEGF121 against 2% BRU-114 microbubbles (competitor) on HAEC, static
[5] = target: endothelial cell receptor on HAEC (human aortic endothelial cells); assay: competition, VEGF165 against 5% DPPE-GTKPPR microbubbles (competitor) on HAEC, static
[6] = target: endothelial cell receptor on HAEC (human aortic endothelial cells); assay: competition, 25 ng/ml VEGF165 against 2% BRU-114 microbubbles (competitor) on HAEC, static
[7] = target: NP-1/Fc (Neuropilin-1/Fc, R&D Systems); assay: fluorescence polarization, competition against OG-labeled BRU-326 (competitor) on NP-1/Fc
[8] = target: endothelial cell receptor on HAEC (human aortic endothelial cells); assay: competition, 100 ng/ml VEGF165 against 2% BRU-114 microbubbles (competitor) on HAEC, static
[9] = target: endothelial cell receptor on HAEC (human aortic endothelial cells); assay: competition, 200 ng/ml VEGF165 against 2% BRU-114 microbubbles (competitor) on HAEC, static
[10] = target: endothelial cell receptor on HAEC (human aortic endothelial cells); assay: competition, 25 ng/ml VEGF165 against 5% DPPE-GTKPPR microbubbles (competitor) on HAEC, static
[11] = target: endothelial cell receptor on HAEC (human aortic endothelial cells); assay: competition, 50 ng/ml VEGF165 against 5% DPPE-GTKPPR microbubbles (competitor) on HAEC, static
[12] = target: endothelial cell receptor on HAEC (human aortic endothelial cells); assay: competition, 75 ng/ml VEGF165 against 5% DPPE-GTKPPR microbubbles (competitor) on HAEC, static
[13] = target: endothelial cell receptor on HAEC (human aortic endothelial cells); assay: competition, 12.5 ng/ml VEGF165 against 5% DPPE-GTKPPR microbubbles (competitor) on HAEC, static
[14] = target: endothelial cell receptor on HAEC (human aortic endothelial cells); assay: competition, 6.25 ng/ml VEGF165 against 5% DPPE-GTKPPR microbubbles (competitor) on HAEC, static
[15] = target: endothelial cell receptor on HAEC (human aortic endothelial cells); assay: competition, 125 ng/ml KDR/Fc against 5% DPPE-GTKPPR microbubbles (competitor) on HAEC, static
[16] = target: endothelial cell receptor on HAEC (human aortic endothelial cells); assay: competition, 250 ng/ml KDR/Fc against 5% DPPE-GTKPPR microbubbles (competitor) on HAEC, static
[17] = target: endothelial cell receptor on HAEC (human aortic endothelial cells); assay: competition, 500 ng/ml KDR/Fc against 5% DPPE-GTKPPR microbubbles (competitor) on HAEC, static
[18] = target: endothelial cell receptor on HAEC (human aortic endothelial cells); assay: competition, 1000 ng/ml KDR/Fc against 5% DPPE-GTKPPR microbubbles (competitor) on HAEC, static
[19] = target: endothelial cell receptor on HAEC (human aortic endothelial cells); assay: competition, 2500 ng/ml KDR/Fc against 5% DPPE-GTKPPR microbubbles (competitor) on HAEC, static

Sequence of soluble human KDR/Fc chimera (R&D Systems Inc.) (P35968 20-764, change not shown): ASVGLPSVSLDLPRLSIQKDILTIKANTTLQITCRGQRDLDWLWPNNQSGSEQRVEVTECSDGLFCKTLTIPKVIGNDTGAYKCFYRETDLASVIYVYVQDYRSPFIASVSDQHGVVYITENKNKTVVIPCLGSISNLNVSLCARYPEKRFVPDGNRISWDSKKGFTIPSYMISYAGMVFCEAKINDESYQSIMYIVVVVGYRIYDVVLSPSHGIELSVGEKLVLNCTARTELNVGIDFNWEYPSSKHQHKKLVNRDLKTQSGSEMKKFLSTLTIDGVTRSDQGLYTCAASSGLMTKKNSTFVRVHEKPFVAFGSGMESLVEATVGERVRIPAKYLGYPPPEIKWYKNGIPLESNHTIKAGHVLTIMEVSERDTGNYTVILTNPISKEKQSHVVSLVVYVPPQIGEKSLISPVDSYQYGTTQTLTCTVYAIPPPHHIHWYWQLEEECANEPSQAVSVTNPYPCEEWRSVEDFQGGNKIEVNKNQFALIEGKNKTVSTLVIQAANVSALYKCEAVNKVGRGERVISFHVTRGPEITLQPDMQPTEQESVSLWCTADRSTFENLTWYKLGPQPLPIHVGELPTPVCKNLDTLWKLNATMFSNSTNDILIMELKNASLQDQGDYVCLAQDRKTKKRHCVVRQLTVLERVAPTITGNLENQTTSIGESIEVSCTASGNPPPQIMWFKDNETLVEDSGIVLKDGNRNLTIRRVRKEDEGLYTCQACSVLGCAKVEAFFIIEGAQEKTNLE
Sequence of NP-1/Fc (Neuropilin-1/Fc, R&D Systems) (Q9QWJ9 22-855): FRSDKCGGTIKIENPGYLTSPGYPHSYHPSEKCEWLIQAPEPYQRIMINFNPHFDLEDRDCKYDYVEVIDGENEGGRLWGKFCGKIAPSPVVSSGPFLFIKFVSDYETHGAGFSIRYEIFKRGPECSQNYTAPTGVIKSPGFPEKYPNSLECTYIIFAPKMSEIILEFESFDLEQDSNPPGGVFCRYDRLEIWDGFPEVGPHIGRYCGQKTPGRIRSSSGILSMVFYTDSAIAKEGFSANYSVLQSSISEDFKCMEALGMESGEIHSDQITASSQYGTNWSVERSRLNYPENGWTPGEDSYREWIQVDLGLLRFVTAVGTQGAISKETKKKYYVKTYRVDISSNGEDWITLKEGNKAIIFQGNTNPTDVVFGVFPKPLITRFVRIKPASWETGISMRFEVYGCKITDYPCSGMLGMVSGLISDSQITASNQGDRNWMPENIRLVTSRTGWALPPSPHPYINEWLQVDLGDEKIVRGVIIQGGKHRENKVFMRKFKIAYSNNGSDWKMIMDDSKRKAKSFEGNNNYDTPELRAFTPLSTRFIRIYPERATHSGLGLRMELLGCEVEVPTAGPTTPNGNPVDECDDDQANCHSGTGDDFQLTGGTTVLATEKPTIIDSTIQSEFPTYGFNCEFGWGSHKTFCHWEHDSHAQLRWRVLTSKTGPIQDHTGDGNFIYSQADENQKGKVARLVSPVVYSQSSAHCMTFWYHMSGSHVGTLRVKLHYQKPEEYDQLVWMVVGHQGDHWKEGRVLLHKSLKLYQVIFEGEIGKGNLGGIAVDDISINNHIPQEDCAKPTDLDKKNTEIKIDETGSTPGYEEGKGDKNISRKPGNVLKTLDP

Integrated density of bound beads (arbitrary units) [1]: 1.61
Substance: BSA-conjugated fluorescent beads (from UniProt P02769 25-607)

Bubbles Bound in presence of competitor [2]: 878 bubbles
Bubbles Bound in presence of competitor [3]: 849 bubbles
Bubbles Bound in presence of competitor [4]: 778 bubbles
Substance: VEGF121 (from UniProt P15692 27-147) (ligand)

IC50 [5]: 0.0125 µg/mL
Bubbles Bound in presence of competitor [6]: 144 bubbles
pIC50 [7]: 6.70
Bubbles Bound in presence of competitor [8]: 94 bubbles
Bubbles Bound in presence of competitor [9]: 70 bubbles
Bubbles Bound in presence of competitor [10]: 342 bubbles
Bubbles Bound in presence of competitor [11]: 226 bubbles
Bubbles Bound in presence of competitor [12]: 190 bubbles
Bubbles Bound in presence of competitor [13]: 599 bubbles
Bubbles Bound in presence of competitor [14]: 1180 bubbles
Substance: VEGF165 (from UniProt P15692 27-191) (ligand)

Bubbles Bound in presence of competitor [15]: 1030 bubbles
Bubbles Bound in presence of competitor [16]: 786 bubbles
Bubbles Bound in presence of competitor [17]: 342 bubbles
Bubbles Bound in presence of competitor [18]: 75 bubbles
Bubbles Bound in presence of competitor [19]: 84 bubbles
Substance: soluble human KDR/Fc chimera (R&D Systems Inc.) (from UniProt P35968 20-764) (Fc fusion)
